Laboratory results reported in patent US11707511B2, “Vaccine compositions and methods of using the same” (The Board of Supervisors of Louisiana State University and …, priority 2017, dated 2023).

How the values were obtained:
Assay type in all cases: in vivo
C. tropicalis ATCC 28775 = experiment: Passive transfer of mAbs, neutropenic mouse model of disseminated candidiasis by C. tropicalis; details: for Protection against C. tropicalis / Protection against C. tropicalis (grade word): Table 6, neutropenic BALB/c mice, mAb i.p. 4 h before 1×10^7 C. tropicalis i.v.; for Protection against Candida spp in mouse model: Against C. tropicalis / Protection against Candida spp in mouse model: Against C. tropicalis (grade word): Table 9
From the text: (§1) Induction of neutropenia. Although C. albicans remains the dominant disease-causing pathogen of this genus, rates of infections caused by non-albicans Candida (NAC) species are increasing. Among these Candida species, only C. albicans is pathogenic in the normal mouse model. To test vaccine and mAbs against non-albicans Candida spp, we have developed neutropenic murine models of disseminated infection by C. glabrata, C. tropicalis, and C. parapsilosis. Before challenge, BLAB/c mice were made neutropenic by intraperitoneal receipt of a 200 mg/kg dose of cyclophosphamide (CY; Sigma-Aldrich) at day −3. The i.p. injection (150 mg/kg) is repeated every 10 days after infection (i.e., at days 10, 20, 30, and 40 post-infection) in order to maintain low neutrophil counts for the entire experimental procedure. […] To evaluate leukocytopenia in these mice, blood samples were collected from tail veins 3 days after each CY or saline injection (n=10 in each group). Total leukocyte and differential cell counts were determined on a hemocytometer and by Wright-Giemsa staining. Body weights of the mice were also measured and compared for 14 days after the first CY or saline injection (n=10 in each group).
(§2) Fungal challenge dose and assessment ofprotection. Although C. albicans remains the dominant disease-causing pathogen of this genus, rates of infections caused by non-albicans Candida (NAC) species are increasing (18). Among these Candida species, only C. albicans is pathogenic in the normal mouse model (19,20). We have developed neutropenic murine models of disseminated infection by C. glabrata, C. tropicalis, and C. parapsilosis. […] In details, mice of different experimental groups (five mice per group) were intravenously infected with 5×10^6 viable C. parapsilosis ATCC MYA-4646 (A), 1×108 C. glabrata ATCC 2001 cells (B) and 1×107 C. tropicalis ATCC 28775 cells (C) in 0.1 ml DPBS. As controls, immunocompetent mice were challenged with the same dose of each Candida strain tested.
(§3) Passive transfer of MAbs by intraperitoneal (i.p.) route. The preventive effect of peptide-specific mAbs listed in Table 3 and Table 4 in naïve mice was examined by passive transfer experiments. Each mAb was appropriately diluted in DPBS to give a 40,000-100,000 ELISA titer against each corresponding specific peptide coated on the plate. For testing, mice received 0.5 ml of each mAb or 1 ml of two mAbs in combination (0.5 ml of each) intraperitoneally. Table 6 and Table 7 have listed all the peptide-specific mAb combinations that have been tested, as well as the protective efficacy of each mAb cocktail as compared to single mAb treatment. The negative control materials tested in mice were single mAb or DPBS. Control mice received 0.5 ml of the DPBS diluents or single mAb treatment. For each condition, 6- to 8-week-old female BALB/c mice (NCI) were given 0.5 ml of test mAb, or 1 ml two mAb cocktails or control materials intraperitoneally, followed 4 h later by 0.1 ml intravenously of defined lethal dose of yeast cells per milliliter of DPBS. Mice were divided into groups with five mice each and three independent experiments were carried out. In some experiments, mice were given the same dose of mAbs or control materials on every other day post-challenge for two weeks, as compared to the protective efficacy of mAb in combinations. All mice were sacrificed on day 50. For animal groups that were challenged non-albicans candida species, determined optimal challenge doses were applied for each candida strain.
(§4) The preventive effect of each universal peptide-specific mAb was examined by passive transfer experiments. Each mAb was appropriately diluted in DPBS (0.2 μg/μl) to give a 100,000 ELISA titer against each universal peptide coated on the plate. For testing, 5 mice of each tested group received 0.5 ml of each mAb intraperitoneally. The negative control materials tested in mice were mAbs absorbed with C. albicans yeast cells (3153A) and DPBS. […]

[1] = tested on: C. parapsilosis ATCC MYA-4646; experiment: Passive transfer of mAbs, neutropenic mouse model of disseminated candidiasis by C. parapsilosis; details: Table 6; neutropenic BALB/c mice; mAb i.p. 4 h before 5×10^6 C. parapsilosis i.v.
From the text: as §1, §2
Passive transfer of MAbs by intraperitoneal (i.p.) route. The preventive effect of peptide-specific mAbs listed in Table 3 and Table 4 in naïve mice was examined by passive transfer experiments. Each mAb was appropriately diluted in DPBS to give a 40,000-100,000 ELISA titer against each corresponding specific peptide coated on the plate. For testing, mice received 0.5 ml of each mAb or 1 ml of two mAbs in combination (0.5 ml of each) intraperitoneally. Table 6 and Table 7 have listed all the peptide-specific mAb combinations that have been tested, as well as the protective efficacy of each mAb cocktail as compared to single mAb treatment. […] For animal groups that were challenged non-albicans candida species, determined optimal challenge doses were applied for each candida strain. […]

C. glabrata ATCC 2001 = experiment: Passive transfer of mAbs, neutropenic mouse model of disseminated candidiasis by C. glabrata; details: for Protection against C. glabrata / Protection against C. glabrata (grade word): Table 6, neutropenic BALB/c mice, mAb i.p. 4 h before 1×10^8 C. glabrata i.v.; for Protection against Candida spp in mouse model: Against C. glabrata / Protection against Candida spp in mouse model: Against C. glabrata (grade word): Table 9
From the text: as §1, §2, §3, §4

Molecule | Protection against C. tropicalis (C. tropicalis ATCC 28775) | Protection against C. tropicalis (grade word) (C. tropicalis ATCC 28775) | Protection against Candida spp in mouse model: Against C. tropicalis (C. tropicalis ATCC 28775) | Protection against Candida spp in mouse model: Against C. tropicalis (grade word) (C. tropicalis ATCC 28775) | Protection against C. parapsilosis [1] | Protection against C. parapsilosis (grade word) [1] | Protection against C. glabrata (C. glabrata ATCC 2001) | Protection against C. glabrata (grade word) (C. glabrata ATCC 2001) | Protection against Candida spp in mouse model: Against C. glabrata (C. glabrata ATCC 2001) | Protection against Candida spp in mouse model: Against C. glabrata (grade word) (C. glabrata ATCC 2001)
1D4H5: IgG1 mAb of hybridoma 1D4H5, specific for GPV-M1; VH SEQ ID NO: 64, VL SEQ ID NO: 66 (antibody, V domains shown) VH: MYLGLNCVFIVFLLKGVQSEVKLEESGGGLVQPGGSMKLSCVASGFTFSNYWMNWVRQSPEKGLEWVAEIRLKSNNYATHYAESVKGRFTISSDDSKSSVYLQMNNLRAEDTGIYYCSTGNYWGQGTTLTVSS VL: MDFQMQIISLLLISVTVIVSNGEIVLTQSPTTMAASPGEKITITCSASSTISSNYLHWYQQKPGFSPKLLIYRTSNLASGVPARFSGSGSGTSYSLTIGTMEAEDVATYYCQQGSTISRTFGSGTKLEIK | (60-80%) | High | (60-80%) | High | (70-80%) | High | (70-90%) | High | (70-90%) | High
10E7E2: IgG1 mAb of hybridoma 10E7E2, specific for GPV-P3; VH SEQ ID NO: 72, VL SEQ ID NO: 74 (antibody, V domains shown) VH: QVQLKQSGPGLVQPSQSLSITCTVSGFSLTSYGVHWVRQSPGKGLEWLGVIWSGGTTDYNAAFISRLSISKDNSKSQVFFKMNSLQANDTAIYYCARGGHRGFAYWGQGTLVTVSA VL: DIVMTQSHKFMSTSVGDRVSITCKASQDVGTAVAWYQQKPGQSPKLLIYWASTRHTGVPDRFTGSGSGTDFTLTISNVQSEDLADYFCQQYSSYPLTFGAGTKLELK | (60-70%) | High | (60-70%) | High | (60-80%) | High | (60-70%) | High | (60-70%) | High
